Data: patent US8691944B2, “Fibronectin polypeptides and methods of use” (The Research Foundation for the State University of New York, priority 2005, dated 2014)
Where no end group is shown, it is not given here.

Legend:
PDGF-BB [1] = target: T1, PDGF-BB (Homo sapiens, UniProt P01127); test: Equilibrium binding of PDGF-BB to FN, FN domains and peptides
Excerpt: (§1) This led us to speculate that PDGF was binding to the engineered ECM through the H or HV domain since vascular endothelial GF (VEGF), a member of the PDGF superfamily, had been reported to bind H and remain active while bound.
(§2) The survival of FN-null fibroblasts in the presence to PDGF-BB required substrate coated with intact FN or FNIII8-11+a PDGF-binding FN domain. […] To address this directly, we performed equilibrium binding assays with PDGF-BB to FN adsorbed to a surface or coupled to agarose beads. In addition, we also investigated the ability of other growth factors to bind intact FN.

PDGF-BB [2] = target: T1, PDGF-BB; test: Surface plasmon resonance kinetic binding of PDGF-BB to FN domains
Excerpt: VEGF, TGF-β1, PDGF-BB and FGF-2 bound IIICS with similar affinities (KD˜10^−7 M). […] The tested biological activities of GFs bound to a FN functional domain were retained or enhanced. […] In addition, our studies provide important information regarding the delivery of GFs and the sequestering of GFs, as appropriate, for therapeutic (e.g., surgical) or aesthetic indications, including wound healing treatments (where an aim is GF delivery) and cancer treatments (where an aim is GF sequestration). Where FN fragments are used to deliver GFs, they may be described as maintaining, activating, stabilizing or enhancing GF activity. […]

TGF-β1 [3] = target: T2, TGF-β1 (Homo sapiens, UniProt P01137); test: Plasmon surface resonance kinetic binding of TGF-β1 to FN domains; details: plasmon resonance
T2 sequence (P01137 279-390 limits assumed, species assumed): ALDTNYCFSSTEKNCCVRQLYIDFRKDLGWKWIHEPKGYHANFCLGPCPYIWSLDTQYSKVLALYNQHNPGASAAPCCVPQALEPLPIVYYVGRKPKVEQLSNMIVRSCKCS
Excerpt: (§3) VEGF, TGF-β1, PDGF-BB and FGF-2 bound IIICS with similar affinities (KD˜10^−7 M). […] The tested biological activities of GFs bound to a FN functional domain were retained or enhanced. […] In addition, our studies provide important information regarding the delivery of GFs and the sequestering of GFs, as appropriate, for therapeutic (e.g., surgical) or aesthetic indications, including wound healing treatments (where an aim is GF delivery) and cancer treatments (where an aim is GF sequestration). Where FN fragments are used to deliver GFs, they may be described as maintaining, activating, stabilizing or enhancing GF activity.
(§4) To determine whether FN domains bind TGF-β1 and bFGF, equilibrium and kinetic binding was performed.

FGF-2 = FGF-2 (Homo sapiens, UniProt P09038); test: Plasmon resonance binding of FGF-2 to FN domains
Sequence of FGF-2 (P09038 143-288): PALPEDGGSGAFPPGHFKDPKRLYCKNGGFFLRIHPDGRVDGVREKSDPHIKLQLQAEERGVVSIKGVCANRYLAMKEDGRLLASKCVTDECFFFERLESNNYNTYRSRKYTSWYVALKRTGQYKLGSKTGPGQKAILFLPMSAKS
Excerpt: as §3

VEGF = test: Plasmon resonance binding of VEGF to FN domains
Excerpt: as §3

[4] = tested on: mouse fibroblasts null for FN (FN−/−); test: Survival of FN-null fibroblasts on FN domains with PDGF-BB; assay type: cell-based; details: for FN-null cell survival with PDGF: plastic precoated with 0.15 μM GST-tagged FNIII8-11 ± the named domain, or named protein, PDGF-BB added 1 day after plating, 3 days; for FN-null cell survival / proliferation with PDGF-BB: FNIII8-11 + the named domain, or named protein
Excerpt: To further investigate the response of cells to PDGF-BB bound to FN domains, we investigated the survival response of mouse fibroblasts null for FN (FN−/−). First we determined the response of FN-null cells to PDGF-BB in the absence of serum or other sources of exogenous FN. […] […] […] Importantly, differential response of FN-null cells, plated on different FN domains, to PDGF-BB was not secondary to differences in attachment as judged by cell counts two hours after plating. The FNIII8-11 central cell binding domain was present in all circumstances.

TGF-β1 [5] = target: T2, TGF-β1; test: Equilibrium binding of TGF-β1 to FN, FN domains and peptides; details: equilibrium binding
Description: These peptides represent domains that follow the sequence pattern [QN]-X(1,2)-[ST]-X(0,1)-[IG]-[QS]-[KRQ]-[YTM]-[IG]-X(4,5)-X(0,1)-[KR]-X(1,2)-X(1,2)-[RT]-X(1,2)-[KQTS]-X(2)-T and that bind TGF-β1 with a certain affinity. […] We know of no other peptides in the human genome database that follow this pattern.
as §4

bFGF = bFGF (Homo sapiens, UniProt P09038); test: Equilibrium binding of bFGF (FGF-2) to FN, FN domains and peptides; details: equilibrium binding, intact FN; read-out: KD, bFGF (FGF-2) binding
Sequence of bFGF (P09038 143-288): as above
Description: as §2, §4

EGF = EGF (Homo sapiens, UniProt P01133); test: Binding of EGF to FN, FN domains and peptides
Sequence of EGF (P01133 971-1023 limits assumed, species assumed): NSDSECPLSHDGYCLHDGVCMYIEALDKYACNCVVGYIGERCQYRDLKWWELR
Excerpt: as §3, §2, §4

TGF-α = TGF-α (Homo sapiens, UniProt P01135); test: Binding of TGF-α to FN, FN domains and peptides
Sequence of TGF-α (P01135 40-89 limits assumed, species assumed): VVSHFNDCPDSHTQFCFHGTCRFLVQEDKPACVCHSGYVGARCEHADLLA
Description: as §2, §4

FGF-1 = FGF-1 (Homo sapiens, UniProt P05230); test: Binding of FGF-1 to FN, FN domains and peptides
Sequence of FGF-1 (P05230 whole entry, species assumed, the tested form may be a part): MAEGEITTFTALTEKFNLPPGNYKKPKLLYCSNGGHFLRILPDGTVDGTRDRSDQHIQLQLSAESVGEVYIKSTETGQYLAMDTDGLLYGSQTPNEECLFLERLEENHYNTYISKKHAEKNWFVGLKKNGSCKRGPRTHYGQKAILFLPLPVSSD
Description: as §2, §4

CCL-64 mink lung cells = test: Inhibition of [3H]-thymidine incorporation by CCL-64 cells by FN-adhered TGF-β; assay type: cell-based
[6] = target: PDGF-BB binding to FNIII1, FNIII12-14 and IIICS (Homo sapiens, UniProt P01127); test: Inhibition of PDGF-BB binding to FN domains by FNIII1 peptides
Sequence of PDGF-BB binding to FNIII1, FNIII12-14 and IIICS (P01127 82-190 limits assumed): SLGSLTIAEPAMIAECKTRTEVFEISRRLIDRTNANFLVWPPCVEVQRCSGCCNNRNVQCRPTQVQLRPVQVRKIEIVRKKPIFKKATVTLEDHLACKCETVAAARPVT
Excerpt: Next, we determined if PDGF-BB-binding peptides from FNIII1 could inhibit PDGF-BB binding to FNIII1, FNIII12-14 and IIICS. For initial experiments we selected peptide 1 and peptide 2. For control, we used scrambled peptide 1.

[7] = target: TGF-β1 binding to any recombinant FN domain (Homo sapiens, UniProt P01137); test: Inhibition of TGF-β1 binding to recombinant FN domains
Sequence of TGF-β1 binding to any recombinant FN domain (P01137 279-390 limits assumed): as the sequence (P01137 279-390 limits assumed, species assumed) above

[8] = target: bFGF binding to any recombinant FN domain (Homo sapiens, UniProt P09038); test: Inhibition of bFGF binding to recombinant FN domains
Sequence of bFGF binding to any recombinant FN domain (P09038 134-288 limits assumed): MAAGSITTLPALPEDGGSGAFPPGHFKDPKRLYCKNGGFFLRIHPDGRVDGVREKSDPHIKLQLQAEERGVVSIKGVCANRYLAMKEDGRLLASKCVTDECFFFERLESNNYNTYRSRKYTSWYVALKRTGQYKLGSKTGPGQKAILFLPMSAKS

human dermal fibroblasts = test: Type 1 collagen production by fibroblasts on FN domain coated plates preincubated with TGF-β1; assay type: cell-based; details: for type 1 collagen production in response to preincubated TGF-β1: plates coated with FNIII8-11 alone or with the named domain
Excerpt: Therefore, we investigated whether it retained its activity while bound to recombinant FN functional domains. FNIII8-11 was adsorbed on plastic tissue culture dishes at a surface density to maximally affect the attachment and spreading of human dermal fibroblasts with or without the presence of adsorbed FNIII1-2. […] The maximum collagen secretion was approximately 25% of the amount observed when TGF-β1 remained in the medium at the concentrations indicated. […] The numbers of attached and spread cells were essentially identical when fibroblasts were cultures on plates coated with both FNIII8-11 and FNIII1-2 or FNIII8-11 alone. Similar data was obtained when fibroblasts were cultured on plates that had been coated with FNIII8-11 and FNIII12-V15 and then preincubated with TGF-β1.

fibroblast chemotaxis = test: Fibroblast chemotaxis to GFs in the presence or absence of FN domains; assay type: cell-based; details: in solution
Description: To determine whether FN functional domains modulated TGF-β1, bFGF or PDGF-BB activity in solution, fibroblast chemotaxis was performed in response to the GFs in the presence or absence of FN domains.

ERK = ERK response to PDGF-BB in presence and absence of FNIII1-2; assay type: cell-based; details: preliminary results
Description: In preliminary results investigating signal transduction pathway activation of growth factors in the presence of FN GF-binding peptides, the response of ERK to PDGF-BB in the presence and absence of FNIII1-2 was studied. Without FNIII1-2, the ERK response to PDGF-BB was maximum at 20 minutes and gradually diminished over four hrs. In the presence of FNIII 1-2, the ERK response to PDGF-BB, was about 25% greater and sustained for at least four hours.

GFs = test: Growth factor binding to FN domains (GFs in general)
Excerpt: as §1

T1 sequence (P01127 82-190 limits assumed): as the sequence (P01127 82-190 limits assumed) above

anastellin: 76-aa peptide within FNIII1; anti-angiogenic, promotes FN polymerization
PDGF-BB binding (in words) (PDGF-BB [1]): demonstrated PDGF-BB binding | PDGF-BB binding (in words) (PDGF-BB [2]): bound | TGF-β1 binding (in words) (TGF-β1 [3]): bound | FGF-2 binding (in words) (FGF-2): bound | VEGF binding (in words) (VEGF): all but VEGF bound

FNIII1: recombinant first FN type III repeat
PDGF-BB binding (in words) (PDGF-BB [2]): all four GFs bound | TGF-β1 binding (in words) (TGF-β1 [3]): all four GFs bound | FGF-2 binding (in words) (FGF-2): all four GFs bound | VEGF binding (in words) (VEGF): all four GFs bound | FN-null cell survival with PDGF [4]: increased survival

QPSHISKY (Synthetically generated peptide) [FN634-641, 8 aa peptide from FNIII1]
TGF-β1 binding (in words) (TGF-β1 [5]): minimal binding activity

fibronectin [intact FN]
Kd (PDGF-BB [1]): 49 nM | Kd (TGF-β1 [5]): 53 nM | Kd (bFGF): 44 nM | EGF binding (in words) (EGF): did not | TGF-α binding (in words) (TGF-α): did not | FGF-1 binding (in words) (FGF-1): did not | FN-null cell survival / proliferation with PDGF-BB [4]: robust proliferation | functional activity of TGF-β adhered to FN (CCL-64 mink lung cells): retained full functional activity

QPSHISKYILRWRPKNSVGRWKEAT [peptide 1]
Kd (PDGF-BB [1]): 250 nM | inhibition of PDGF-BB binding to FNIII1, FNIII12-14 and IIICS [6]: marked inhibition | inhibition of TGF-β1 binding to any recombinant FN domain [7]: completely inhibited | inhibition of bFGF binding to any recombinant FN domain [8]: completely inhibited

FN668-704: one half of the 76 aa FNIII1 peptide FN630-704
PDGF-BB binding (in words) (PDGF-BB [1]): demonstrated PDGF-BB binding

FN630-667: one half of the 76 aa FNIII1 peptide FN630-704
PDGF-BB binding (in words) (PDGF-BB [1]): demonstrated PDGF-BB binding

FNIII1-2: recombinant FN type III repeats 1-2
Kd (PDGF-BB [1]): 37 nM | PDGF-BB binding (in words) (PDGF-BB [2]): all four GFs bound | Kd (PDGF-BB [2]; kinetic binding): 9.1 nM | TGF-β1 binding (in words) (TGF-β1 [3]): all four GFs bound | FGF-2 binding (in words) (FGF-2): all four GFs bound | VEGF binding (in words) (VEGF): all four GFs bound | FN-null cell survival / proliferation with PDGF-BB [4]: enhance survival | type 1 collagen production in response to preincubated TGF-β1 (human dermal fibroblasts): produced type 1 collagen in a dose response fashion | maximum collagen secretion, % of amount when TGF-β1 remained in the medium (human dermal fibroblasts; plates coated with FNIII8-11 and FNIII1-2, preincubated with TGF-β1): approximately 25% | chemotactic activity when assayed alone (fibroblast chemotaxis): no chemotactic activity | enhancement of chemotactic activity of TGF-β1, bFGF and PDGF-BB (fibroblast chemotaxis): enhanced the chemotactic activity | ERK response to PDGF-BB, increase versus without FNIII1-2 (ERK): about 25% | duration of sustained ERK response to PDGF-BB (ERK): at least four

FNIII2: recombinant second FN type III repeat
PDGF-BB binding (in words) (PDGF-BB [2]): all four GFs bound | TGF-β1 binding (in words) (TGF-β1 [3]): all four GFs bound | FGF-2 binding (in words) (FGF-2): all four GFs bound | VEGF binding (in words) (VEGF): all four GFs bound

FN70: 70 kDa amino terminus of FN, includes fibrin and gelatin binding domains
PDGF-BB binding (in words) (PDGF-BB [1]): did not | PDGF-BB binding (in words) (PDGF-BB [2]): None of the GFs detectably bound | TGF-β1 binding (in words) (TGF-β1 [3]): None of the GFs detectably bound | FGF-2 binding (in words) (FGF-2): None of the GFs detectably bound | VEGF binding (in words) (VEGF): None of the GFs detectably bound | binding of any GF (in words) (GFs): In no case did any GF bind

FNIII8-V15: FN type III repeats 8 to V15
FN-null cell survival / proliferation with PDGF-BB [4]: robust proliferation

FNIII1-11: recombinant FN type III repeats 1-11
PDGF-BB binding (in words) (PDGF-BB [2]): bound | TGF-β1 binding (in words) (TGF-β1 [3]): bound | FGF-2 binding (in words) (FGF-2): did not | VEGF binding (in words) (VEGF): did not | FN-null cell survival in the absence of PDGF-BB [4]: survived | FN-null cell survival / proliferation with PDGF-BB [4]: robust proliferation | FN-null cell survival with PDGF [4]: The best survival response

QLISIQQYGHQEVTRFDFTTTSTST [peptide 2]
inhibition of PDGF-BB binding to FNIII1, FNIII12-14 and IIICS [6]: neither peptide 2, nor the scramble varient of peptide 1 (FN634-658s), demonstrated inhibition

FNIII8-11: central cell-binding domain of FN containing RGD
PDGF-BB binding (in words) (PDGF-BB [1]): did not | PDGF-BB binding (in words) (PDGF-BB [2]): None of the GFs detectably bound | TGF-β1 binding (in words) (TGF-β1 [3]): None of the GFs detectably bound | FGF-2 binding (in words) (FGF-2): None of the GFs detectably bound | VEGF binding (in words) (VEGF): None of the GFs detectably bound | binding of any GF (in words) (GFs): In no case did any GF bind | FN-null cell survival with PDGF [4]: failed to survive | support of FN-null fibroblast survival in the presence of PDGF-BB ([4]; substrate coating, FNIII8-11 alone or + named domain): did not support cell survival | type 1 collagen production in response to preincubated TGF-β1 (human dermal fibroblasts): No increase in collagen synthesis
